Assay results taken from patent publication US20200347144A1 (SHANGHAI HYAMAB BIOTECH, published 2020).

Experiments:
[1] = biological target: T1, mouse 4-1BB protein (extracellular domain) (mouse, UniProt P20334 24-187); assay: ELISA, coated mouse 4-1BB; Ab 2 ug/ml
T1 construct: extracellular domain; also called mouse 4-1BB-his; mouse 4-1BB-hFc protein
T1 sequence (looked up): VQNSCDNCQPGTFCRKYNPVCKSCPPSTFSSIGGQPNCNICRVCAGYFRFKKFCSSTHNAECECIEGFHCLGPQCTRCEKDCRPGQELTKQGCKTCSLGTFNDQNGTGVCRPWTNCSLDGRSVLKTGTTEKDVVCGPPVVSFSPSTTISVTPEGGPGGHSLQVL
Procedure: (§1) The purified immunogen A (4-1BB-hFc), monkey 4-1BB-his, and mouse 4-1BB-his obtained in Example 1 [for the preparation method, see step 1 of Example 1, preparation of immunogen A], of which the extracellular domain of monkey-derived 4-1BB protein (purchased from ACRO biosystems), the extracellular domain of mouse 4-1BB protein (purchased from sino biological) or other immune detection point proteins respectively were diluted with PBS to a final concentration of 1.0 μg/mL, then added with […] per well to 96-well ELISA plate. It was sealed with plastic film and incubated at 4° C. overnight. The next day, the plate was washed twice with the plate-washing solution [PBS containing 0.01% (v/v) Tween20] and blocking solution [PBS containing 0.01% (v/v) Tween 20 and 1% (v/v) BSA] was added and blocked at room temperature for 2 hours. The blocking solution was discarded and 100 μl of the purified 4-1BB antibody obtained in Example 2 was added per well. After incubated at 37° C. for 2 hours, the plate was washed 3 times with a plate-washing solution [PBS containing 0.01% (v/v) Tween20]. A secondary antibody (purchased from Sigma) labeled with HRP (horseradish peroxidase) was added, and after incubated at 37° C. for 2 hours, the plate was washed 3 times with a plate-washing solution [PBS containing 0.01% (v/v) Tween20]. 100 μl of TMB substrate was added per well. After incubated for 30 minutes at room temperature, 100 μl of stop buffer (1.0N HCl) was added per well. The A450 nm values were read using an ELISA plate reader (SpectraMax 384plus, Molecular Device).

[2] = biological target: T1, mouse 4-1BB protein (extracellular …); assay: ELISA, coated mouse 4-1BB; Ab 10 ug/ml
Procedure: as §1

[3] = biological target: T1, mouse 4-1BB protein (extracellular …); assay: ELISA, coated mouse 4-1BB; Ab 0.4 ug/ml
Procedure: as §1

[4] = biological target: T1, mouse 4-1BB protein (extracellular …); assay: ELISA, coated mouse 4-1BB; Ab 0.08 ug/ml
Procedure: as §1

monkey 4-1BB-his protein [5] = biological target: T2, monkey 4-1BB-his protein (monkey); assay: ELISA, coated monkey 4-1BB-his; Ab 2 ug/ml
T2 construct: extracellular domain; Bought protein; also called extracellular domain of monkey-derived 4-1BB protein
Procedure: as §1

[6] = biological target: T1, mouse 4-1BB protein (extracellular …); assay: ELISA, coated mouse 4-1BB; Ab 0.0001 ug/ml
Procedure: as §1

[7] = biological target: T1, mouse 4-1BB protein (extracellular …); assay: ELISA, coated mouse 4-1BB; Ab 0.0006 ug/ml
Procedure: as §1

[8] = biological target: T1, mouse 4-1BB protein (extracellular …); assay: ELISA, coated mouse 4-1BB; Ab 0.0032 ug/ml
Procedure: as §1

monkey 4-1BB-his protein [9] = biological target: T2, monkey 4-1BB-his protein; assay: ELISA, coated monkey 4-1BB-his; Ab 0.4 ug/ml
Procedure: as §1

monkey 4-1BB-his protein [10] = biological target: T2, monkey 4-1BB-his protein; assay: ELISA, coated monkey 4-1BB-his; Ab 0.08 ug/ml
Procedure: as §1

monkey 4-1BB-his protein [11] = biological target: T2, monkey 4-1BB-his protein; assay: ELISA, coated monkey 4-1BB-his; Ab 0.016 ug/ml
Procedure: as §1

monkey 4-1BB-his protein [12] = biological target: T2, monkey 4-1BB-his protein; assay: ELISA, coated monkey 4-1BB-his; Ab 0.0006 ug/ml
Procedure: as §1

[13] = biological target: T3, monkey 4-1BB on CHOK1 cells (monkey); assay: FACS on CHOK1-c4-1BB cells, Alexa 488 secondary antibody, average fluorescence intensity
T3 construct: whole, on cells; also called CHOK1-c4-1BB
Source text: The pIRES plasmid carrying the full-length gene of monkey-derived […] (the preparation method is the same as the preparation method of the pCpC vector carrying the human-derived IgG Fc fragment (hFc) in “Preparation of immunogen A” of the step (1) in Example 1, in which the database accession number of the amino acid sequence of the extracellular region of monkey 4-1BB protein (Phe19-Thr239) is G7PSE7) was transfected into CHOK1 cell line to obtain CHOK1 stable transfected cell line containing monkey 4-1BB (herein referred to as CHOK1-c4-1BB stable cell line). The CHOK1-h4-1BB stable cell line and the CHOK1-c4-1BB stable cell line were expanded and cultivated to 90% confluence in T-75 cell culture flasks. The medium was exhausted, and washed twice with HBSS buffer (Hanks Balanced Salt Solution, purchased from Invitrogen), and then the cells were treated and collected with enzyme-free cell dissociation solution (Versene solution, purchased from Life Technology). The cells were washed twice with HBSS buffer, and after cell counting, the cells were diluted with HBSS buffer to 2×10⁶ cells per ml, and 1% goat serum blocking solution was added, the percentage being the mass percentage. It was incubated on ice for 30 minutes, and then washed twice with HBSS buffer by centrifugation. The collected cells were suspended in FACS buffer (HBSS containing 1% BSA, the percentage was the mass percentage) to 2×10⁶ cells/mL, and 100 μl per well was added to a 96-well FACS reaction plate. The purified 4-1BB antibody test sample obtained in Example 2 was added, 100 microliters per well and incubated on ice for 2 hours. […] It was washed three times with FACS buffer by centrifugation, and 100 μl of fixative [4% (v/v) paraformaldehyde] per well was added to suspend cells, and washed twice with FACS buffer after 10 minutes by centrifugation. The cells were suspended with 100 microliters of FACS buffer, and the results were detected and analyzed with FACS (FACS Calibur, purchased from BD).

[14] = biological target: T1, mouse 4-1BB protein (extracellular …); assay: ELISA: mouse 4-1BB protein coated at 1.0 µg/mL (target by Table 10; the legend paragraph 119 says monkey 4-1BB-hFc), antibody titrated, HRP secondary antibody, OD450
Procedure: as §1

- OD450 nm [1]: 0.18 OD450 nm
- OD450 nm [2]: 0.25 OD450 nm
- OD450 nm [3]: 0.08 OD450 nm
- OD450 nm [4]: 0.05 OD450 nm
- OD450 nm (monkey 4-1BB-his protein [5]): 2.2 OD450 nm
- OD450 nm [6]: 0.05 OD450 nm
- OD450 nm [7]: 0.05 OD450 nm
- OD450 nm [8]: 0.05 OD450 nm
- OD450 nm (monkey 4-1BB-his protein [9]): 2.14 OD450 nm
- OD450 nm (monkey 4-1BB-his protein [10]): 1.58 OD450 nm
- OD450 nm (monkey 4-1BB-his protein [11]): 0.47 OD450 nm
- OD450 nm (monkey 4-1BB-his protein [12]): 0.08 OD450 nm
- EC50 (read off the curve) [13]: ~0.1 µg/mL
- binding result [14]: no binding (tested: 10 µg/ml)
B1: 113F6C6 (antibody, V domains shown)
VH: QVQLVESGGGVVQPGRSLRLSCAASGLTFSSYGMHWVRQAPGKGLEWVAVIWYDGSNKYYADSVKGRFTISRDNSKNTLYLQMNSLRAEDTAVYYCAREEVLWFGELSYNYYYGMDVWGQGTTVTVSS
VL: DIQMTQSPSSLSASVGDRVTITCRASQGISNYLAWYQQKPGKVPKLLIYAASTLQSGVPSRFSGSGSGTDFTLTISSLQPEDVATYYCQKYNSVPLTFGGGTKVEIK
notes: also called 4-1BB fully human antibody 113F6C6; 113F6F6
